Assay results taken from PMC5522267, “Targeting PEPT1: a novel strategy to improve the antitumor efficacy of doxorubicin in human hepatocellular carcinoma therapy” (Oncotarget, 2017).
Marks after values point to notes of the source that are not given here.

Experiments:
PEPT1 = biological target: T1, PEPT1 (Homo sapiens, UniProt P46059); parameters: method as in previous research of the authors (Figure 1); settings: Bel-7402, HepG2 and Caco-2 cells; ref previous research of the authors (Figure 1); cited from earlier work
T1 construct: Doxorubicin-tripeptide conjugate were incubated with HCC cell monolayer at pH 6.0 for 120 min; endogenous in cells; host or cells: Bel-7402, HepG2 (human HCC cells); Caco-2
T1 sequence (P46059 1-708): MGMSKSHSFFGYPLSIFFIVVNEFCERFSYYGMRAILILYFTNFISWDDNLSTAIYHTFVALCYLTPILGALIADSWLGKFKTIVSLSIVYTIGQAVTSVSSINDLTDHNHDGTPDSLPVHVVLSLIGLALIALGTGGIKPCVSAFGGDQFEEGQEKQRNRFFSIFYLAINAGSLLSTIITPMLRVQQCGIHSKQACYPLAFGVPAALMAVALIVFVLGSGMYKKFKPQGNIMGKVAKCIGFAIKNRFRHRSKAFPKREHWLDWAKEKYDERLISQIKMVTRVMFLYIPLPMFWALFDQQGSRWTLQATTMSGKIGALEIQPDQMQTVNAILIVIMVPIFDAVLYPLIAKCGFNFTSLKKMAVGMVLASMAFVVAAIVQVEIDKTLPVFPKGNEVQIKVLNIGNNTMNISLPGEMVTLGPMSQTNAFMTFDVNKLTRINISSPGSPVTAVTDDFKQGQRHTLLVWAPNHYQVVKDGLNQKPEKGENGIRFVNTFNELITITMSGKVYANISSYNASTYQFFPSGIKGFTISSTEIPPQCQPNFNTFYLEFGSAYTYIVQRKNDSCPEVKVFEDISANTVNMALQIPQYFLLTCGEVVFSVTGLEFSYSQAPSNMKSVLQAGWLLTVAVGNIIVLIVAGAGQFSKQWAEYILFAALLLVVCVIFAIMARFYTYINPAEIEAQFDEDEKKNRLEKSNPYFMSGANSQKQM

Bel-7402 [1] = assay: cells; format: cell-based, human; settings: Bel-7402, MTT
Experimental: (§1) Cells in the growth log phase were seeded in 96-well plate (200 ul/well) with density 8×10^3/well for 24 hours, then the drugs were added. The concentration of Doxorubicin-tripeptide conjugate was 0.005 mg/ml, 0.01 mg/ml, 0.02 mg/ml, 0.04 mg/ml, 0.06 mg/ml in turn, while Doxorubicin followed by 0.005 mg/ml, 0.01 mg/ml, 0.02 mg/ml, 0.04 mg/ml, 0.06 mg/ml with a same dosing volume 100 μl. Each concentration group included five equal wells and was provided with a control well of medium alone as a negative control. Add 20 μl of MTT Reagent ( 5 mg/ml, Sigma) to each well, including controls and continue to be incubated at 37°C for 4 hours. Remove the supernatant, drop plus DMSO (200 μl/well) and measure the OD value in each well, including the blanks, at 490 nm by a Multi-Mode Reader (BioTek, Synergy 2, USA). To calculate the inhibitory rate and the half maximal inhibitory concentration (IC50) according to the formula: Inhibitory rate =(1-( the dosing group OD/the control group OD )) × 100%, IC50 = lg^-1 (Xm-i (ΣP-0.5)) (Xm: the logarithm of maximum concentration, I: the logarithm of maximum dose/ adjacent dose, P: the sum of each group inhibitory rate, Pm: the maximum inhibitory rate, Pn: the minimum inhibitory rate ).

Caco2 [2] = assay: cells; format: cell-based, human; settings: Caco2, MTT
Experimental: as §1

HepG2 [3] = assay: cells; format: cell-based, human; settings: HepG2, MTT
Experimental: as §1

HCC cells = assay: MTT on HCC cells (cell line not given); format: cell-based, human
Experimental: as §1

Bel-7402 [4] = assay: Drug concentration in tumor cells by HPLC, Bel-7402; format: cell-based, human; settings: incubated 2 hours
Experimental: (§2) When the density of HCC cells reached to 3 × 10^6/ml, they were trypsinized and centrifuge (4°C, 800rpm, 5min), then discarded the supernatant, dropping medium 3 ml and evenly mixed. Cell suspension was divided into three groups (control group, Doxorubicin-tripeptide conjugate group and Doxorubicin group). The drug concentration was 0.01 mg/ml for cultured 2 hours avoiding light. Then the cells obtained by centrifugation were proceeded by the following steps: washed 3 times with 1 ml normal saline, added 0.5 ml ultra pure water (Millipore), broken by ultrasonic wave, drooped in acetonitrile (Tianjin Concord Technology Co. Ltd, China) 0.5 ml, mixed, ultrasonic oscillation for 10 mins, centrifuge (1200 rpm, 15 min), take the supernatant, filtration with filter membrane, take 20 μl for HPLC analysis (Agilent 1100 HPLC system, USA).
(§3) Chromatographic conditions were as follows: chromatographic column: DIONEX Acclaim 120 C18 (2.1 × 250 mm, 5 μm 120A), Mobile phase: Acetonitrile-0.2%NaH2PO4 aqueous solution (35: 65), Velocity: 0.35 ml/min, column temperature: 30°C, DAD, 254 nm, sample size: 20 μl. […] According to the chromatographic condition, the retention time (tR), peak position time, chromatographic behavior, resolution (R), the minimum detectable concentration and the intracellular drug concentration of these two drugs were detected in turn.

HepG2 [5] = assay: Drug concentration in tumor cells by HPLC, HepG2; format: cell-based, human; settings: incubated 2 hours
Experimental: as §2, §3

Caco2 [6] = assay: Drug concentration in tumor cells by HPLC, Caco2; format: cell-based, human; settings: incubated 2 hours
Bel-7402 HCC = test system: Bel-7402 HCC
From the text: (§4) An animal model of HCC cells (Bel-7402, HepG2) transplanted into nude mice was established according to the method described in ref. 10.

HepG2 HCC = test system: HepG2 HCC
From the text: as §4

[7] = Cardiac indexes, HepG2 HCC mice; format: in vivo, nude mice; settings: low dose, after treatment
[8] = Cardiac indexes, Bel-7402 HCC mice; format: in vivo, nude mice; settings: high dose, after treatment
[9] = Blood routine, HepG2 HCC mice; format: in vivo, nude mice; settings: low dose, after treatment
[10] = Blood routine, Bel-7402 HCC mice; format: in vivo, nude mice; settings: high dose, after treatment
[11] = Drug distribution in tissues by Small Animal Imaging, HepG2 HCC mice; format: in vivo, nude mice; settings: HepG2 HCC mice (low dose group), compared with control group
From the text: (§5) What's more, the tumor, liver, jejunum and heart tissue of mice were dissected firstly for Small Animal Imaging (KODAK IS in-vivo FX, Kodak), and secondly were placed in the 10% Formaldehyde solution to prepare paraffin section, HE staining for histological examination.

[12] = Drug distribution in tissues by Small Animal Imaging, Bel-7402 HCC mice; format: in vivo, nude mice; settings: Bel-7402 HCC mice (high dose group), compared with Doxorubicin group
From the text: as §5

## Cc1c(CC(=O)NCCCC[C@H](NC(=O)[C@@H](C)N)C(=O)O)c(=O)oc2cc(N)ccc12 [Ala-Lys-AMCA]
PEPT1
  inhibition of uptake by PEPT1 substrates: competitive inhibition by three known substrates of PEPT1
  uptake dependence on time and concentration: time-dependent and concentration-dependent

## COc1cccc2c1C(=O)c1c(O)c3c(c(O)c1C2=O)C[C@@](O)(C(=O)CO)C[C@@H]3O[C@H]1C[C@H](NC(=O)CNC(=O)CNC(=O)CN)[C@H](O)[C@H](C)O1 [Doxorubicin-tripeptide conjugate]
Bel-7402 [1]
  IC50: 52.5 µg/mL
Caco2 [2]
  IC50: 52.9 µg/mL
HepG2 [3]
  IC50: 51.4 µg/mL
HCC cells
  IC50: 50 µg/mL
Bel-7402 [4]
  drug concentration in tumor cells: 3080 ± 30 ng/mL
HepG2 [5]
  drug concentration in tumor cells: 2940 ± 20 ng/mL
Caco2 [6]
  drug concentration in tumor cells: 3090 ± 30 ng/mL
Bel-7402 HCC; Bel-7402, high dose group, 5W
  deaths during treatment: 1 death during the treatment of 4W+
Bel-7402 HCC; Bel-7402 HCC mice, baseline
  Mice weight, Before treatment: 23.22 ± 1.57 g
Bel-7402 HCC; Bel-7402 HCC mice, high dose: Doxorubicin 60 mg/m^2, conjugate 300 mg/m^2, tail vein, 5 weeks
  Mice weight, After treatment: 20.13 ± 1.09^a g
HepG2 HCC; HepG2, low dose group, 5W
  deaths during treatment: no death
HepG2 HCC; HepG2 HCC mice, baseline
  Mice weight, Before treatment: 20.88 ± 5.37 g
HepG2 HCC; HepG2 HCC mice, low dose: Doxorubicin 40 mg/m^2, conjugate 200 mg/m^2, tail vein, 5 weeks
  Mice weight, After treatment: 19.90 ± 3.71 g
[7]
  AST: 637.75 ± 319.83 U/L
  CK: 1070.75 ± 193.32 U/L
  CK-Mb: 570.00 ± 99.07^b U/L
  GSH-PX: 682.33 ± 51.09 U
  LDH: 6116.75 ± 1136.22 U/L
  MDA: 3.16 ± 0.26 nmol/mg
  SOD: 164.15 ± 25.20 U/mg
[8]
  AST: 720.83 ± 303.52^b U/L
  CK: 1025.17 ± 182.34^b U/L
  CK-Mb: 424.33 ± 189.91^b U/L
  GSH-PX: 700.50 ± 79.58^b U
  LDH: 6517.00 ± 1956.59 U/L
  MDA: 2.78 ± 0.22^b nmol/mg
  SOD: 171.71 ± 15.51 U/mg
[9]
  PLT: 135.00 ± 69.55 ×10^9/l
  RBC: 8.03 ± 0.91 ×10^12/l
  WBC: 8.08 ± 3.40 ×10^9/l
[10]
  PLT: 159.83 ± 74.74^b ×10^9/l
  RBC: 7.50 ± 1.77 ×10^12/l
  WBC: 7.05 ± 2.70^b ×10^9/l
[11]
  drug distribution in tissues: mainly distributed in subcutaneous tumor tissue and less in heart tissue
[12]
  drug distribution in tissues: mainly distributed in subcutaneous tumor tissue and liver metastatic tumor tissue and less in heart tissue
HCC mice, both dose groups
  change of mice weight during treatment: weight increase in group B at the early stage of treatment, but a weight decreased significantly at the late stage of treatment
  survival quality (general condition): lethargy, vomiting and loss of appetite administered within 3 days, then gradually restored
Compared with the Doxorubicin group, cardiac indexes, histopathology, blood routine, bone marrow smears, P < 0.05
  damage to heart and bone marrow: less damage to the heart and bone marrow
